Publication PMC9068813, “Enhancer RNAs stimulate Pol II pause release by harnessing multivalent interactions to NELF”

Tests used:
Conditions in all cases: protein: recombinant; tags: His-tag (Ni-NTA purified); copies: 1;1;1;1
[1] = target: T1, NELF complex WT (UniProt Q9H3P2;Q8WX92;Q8IXH7;P18615 1-528;1-628;1-590;1-380); assay: EMSA (NELF release from PEC); no DSIF release at high RNA; 20 mM Na-HEPES pH 7.4, 100 mM NaCl, 25 mM KCl, 3 mM MgCl2, 2 mM DTT; assembly 30 °C, eRNA incubation 15-20 min at room temperature; 3.5% native PAGE 0.5x TBE at 4 °C; PEC about 0.1 µM NELF 0.15 µM
[2] = target: T1, NELF complex WT; assay: EMSA (NELF release from PEC); DSIF also released at high RNA; 20 mM Na-HEPES pH 7.4, 100 mM NaCl, 25 mM KCl, 3 mM MgCl2, 2 mM DTT; assembly 30 °C, eRNA incubation 15-20 min at room temperature; 3.5% native PAGE 0.5x TBE at 4 °C; PEC about 0.1 µM NELF 0.15 µM
[3] = target: T1, NELF complex WT; assay: EMSA (NELF release from PEC); up to 2.4 µM; 20 mM Na-HEPES pH 7.4, 100 mM NaCl, 25 mM KCl, 3 mM MgCl2, 2 mM DTT; assembly 30 °C, eRNA incubation 15-20 min at room temperature; 3.5% native PAGE 0.5x TBE at 4 °C; PEC about 0.1 µM NELF 0.15 µM
[4] = target: T1, NELF complex WT; assay: EMSA (NELF release from PEC); release at about equimolar eRNA; 20 mM Na-HEPES pH 7.4, 100 mM NaCl, 25 mM KCl, 3 mM MgCl2, 2 mM DTT; assembly 30 °C, eRNA incubation 15-20 min at room temperature; 3.5% native PAGE 0.5x TBE at 4 °C; PEC about 0.1 µM NELF 0.15 µM
[5] = target: T1, NELF complex WT; assay: size-exclusion chromatography; UV crosslinking-MS (365 nm); isolated NELF; 20 mM Na-HEPES pH 7.4, 100 mM NaCl, 25 mM KCl, 3 mM MgCl2, 2 mM DTT; assembly 30 °C, eRNA incubation 15-20 min at room temperature; 3.5% native PAGE 0.5x TBE at 4 °C; PEC about 0.1 µM NELF 0.15 µM
[6] = target: T1, NELF complex WT; assay: EMSA (NELF release from PEC); apparent Kd; NELF in PEC on N1; 20 mM Na-HEPES pH 7.4, 100 mM NaCl, 25 mM KCl, 3 mM MgCl2, 2 mM DTT; assembly 30 °C, eRNA incubation 15-20 min at room temperature; 3.5% native PAGE 0.5x TBE at 4 °C; PEC about 0.1 µM NELF 0.15 µM
[7] = target: T1, NELF complex WT; assay: EMSA (NELF release from PEC); 20 mM Na-HEPES pH 7.4, 100 mM NaCl, 25 mM KCl, 3 mM MgCl2, 2 mM DTT; assembly 30 °C, eRNA incubation 15-20 min at room temperature; 3.5% native PAGE 0.5x TBE at 4 °C; PEC about 0.1 µM NELF 0.15 µM
[8] = target: T1, NELF complex WT; assay: EMSA (NELF release from PEC); 18-fold molar excess; 20 mM Na-HEPES pH 7.4, 100 mM NaCl, 25 mM KCl, 3 mM MgCl2, 2 mM DTT; assembly 30 °C, eRNA incubation 15-20 min at room temperature; 3.5% native PAGE 0.5x TBE at 4 °C; PEC about 0.1 µM NELF 0.15 µM

T1 sequence (Q9H3P2 whole entry, chain 1 of 4): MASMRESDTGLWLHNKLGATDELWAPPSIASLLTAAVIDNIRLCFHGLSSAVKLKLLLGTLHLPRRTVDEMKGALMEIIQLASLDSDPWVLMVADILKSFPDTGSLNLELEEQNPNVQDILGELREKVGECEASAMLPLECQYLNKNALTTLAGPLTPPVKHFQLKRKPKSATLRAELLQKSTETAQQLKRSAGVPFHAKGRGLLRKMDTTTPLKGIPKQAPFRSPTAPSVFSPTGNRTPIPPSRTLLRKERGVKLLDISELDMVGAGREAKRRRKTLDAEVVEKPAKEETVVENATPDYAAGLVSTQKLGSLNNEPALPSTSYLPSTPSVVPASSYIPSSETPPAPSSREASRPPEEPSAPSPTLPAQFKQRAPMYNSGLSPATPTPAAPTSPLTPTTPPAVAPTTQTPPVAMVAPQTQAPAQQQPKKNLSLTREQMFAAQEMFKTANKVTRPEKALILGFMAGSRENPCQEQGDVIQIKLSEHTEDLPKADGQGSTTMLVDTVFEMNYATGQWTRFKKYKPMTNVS
T1 sequence (Q8WX92 other isoform, or with tags, fused parts or gaps, chain 2 of 4): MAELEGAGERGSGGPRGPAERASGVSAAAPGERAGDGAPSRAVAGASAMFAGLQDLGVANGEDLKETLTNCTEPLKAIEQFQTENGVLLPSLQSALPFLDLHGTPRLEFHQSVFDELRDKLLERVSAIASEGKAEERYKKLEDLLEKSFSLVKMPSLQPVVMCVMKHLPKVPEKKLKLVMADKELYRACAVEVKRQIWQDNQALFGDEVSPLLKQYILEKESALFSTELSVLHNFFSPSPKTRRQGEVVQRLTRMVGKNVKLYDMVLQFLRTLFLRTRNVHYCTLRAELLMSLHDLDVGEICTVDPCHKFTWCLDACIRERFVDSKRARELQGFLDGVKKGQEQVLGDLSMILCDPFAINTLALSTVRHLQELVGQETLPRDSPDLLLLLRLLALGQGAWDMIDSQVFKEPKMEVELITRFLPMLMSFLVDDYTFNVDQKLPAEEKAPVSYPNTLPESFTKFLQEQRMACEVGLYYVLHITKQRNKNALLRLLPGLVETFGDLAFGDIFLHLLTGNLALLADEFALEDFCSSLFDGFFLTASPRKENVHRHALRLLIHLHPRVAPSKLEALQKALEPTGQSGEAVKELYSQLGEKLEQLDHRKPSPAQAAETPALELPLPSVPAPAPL
T1 sequence (Q8IXH7 whole entry, chain 3 of 4): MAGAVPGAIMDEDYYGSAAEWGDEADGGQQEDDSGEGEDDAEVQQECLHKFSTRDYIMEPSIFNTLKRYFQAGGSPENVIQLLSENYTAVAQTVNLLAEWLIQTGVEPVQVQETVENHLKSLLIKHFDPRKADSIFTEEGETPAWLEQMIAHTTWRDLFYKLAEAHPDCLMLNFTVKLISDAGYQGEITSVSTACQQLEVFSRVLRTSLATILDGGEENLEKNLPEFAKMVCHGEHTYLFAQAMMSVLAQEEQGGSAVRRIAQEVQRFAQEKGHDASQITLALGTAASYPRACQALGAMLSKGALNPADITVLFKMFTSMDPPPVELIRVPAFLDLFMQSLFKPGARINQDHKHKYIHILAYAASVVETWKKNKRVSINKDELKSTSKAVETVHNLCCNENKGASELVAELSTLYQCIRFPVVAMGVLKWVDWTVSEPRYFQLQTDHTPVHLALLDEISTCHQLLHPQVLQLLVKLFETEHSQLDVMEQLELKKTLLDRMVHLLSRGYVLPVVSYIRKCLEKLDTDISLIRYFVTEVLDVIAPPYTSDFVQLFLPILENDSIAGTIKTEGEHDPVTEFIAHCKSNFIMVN
T1 sequence (P18615 whole entry, chain 4 of 4): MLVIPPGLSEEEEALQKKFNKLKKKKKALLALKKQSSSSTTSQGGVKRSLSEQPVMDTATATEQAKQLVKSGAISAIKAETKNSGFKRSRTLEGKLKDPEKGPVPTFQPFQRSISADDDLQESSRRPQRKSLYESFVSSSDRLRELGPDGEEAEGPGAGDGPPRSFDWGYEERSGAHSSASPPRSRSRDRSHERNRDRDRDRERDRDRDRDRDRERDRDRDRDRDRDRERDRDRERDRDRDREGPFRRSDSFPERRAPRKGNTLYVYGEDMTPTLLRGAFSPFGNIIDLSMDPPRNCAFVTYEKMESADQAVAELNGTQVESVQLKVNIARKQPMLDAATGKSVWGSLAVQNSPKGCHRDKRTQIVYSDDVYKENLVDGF

B1: poly(G2A6), 96 nt (ssRNA)
RNA: GGAAAAAAGGAAAAAAGGAAAAAAGGAAAAAAGGAAAAAAGGAAAAAAGGAAAAAAGGAAAAAAGGAAAAAAGGAAAAAAGGAAAAAAGGAAAAAA
B1: binds [1].

B2: poly(GU)40, 80 nt (ssRNA)
RNA: GUGUGUGUGUGUGUGUGUGUGUGUGUGUGUGUGUGUGUGUGUGUGUGUGUGUGUGUGUGUGUGUGUGUGUGUGUGUGUGU
B2: binds [2].

B3: poly(A) (ssRNA)
RNA: AAAAAAAAAAAAAAAAAAAAAAAAAAAAAAAAAAAAAAAAAAAAAAAAAAAAAAAAAAAAAAAAAAAAAAAAAAAAAAAA
B3: no binding [3].

B4: poly(CU) (ssRNA)
RNA: CUCUCUCUCUCUCUCUCUCUCUCUCUCUCUCUCUCUCUCUCUCUCUCUCUCUCUCUCUCUCUCUCUCUCUCUCUCUCUCU
B4: no binding [3].

B5: poly(U) (ssRNA)
RNA: UUUUUUUUUUUUUUUUUUUUUUUUUUUUUUUUUUUUUUUUUUUUUUUUUUUUUUUUUUUUUUUUUUUUUUUUUUUUUUUU
B5: no binding [3].

B6: Nr4a1-(b) eRNA 1-200 (structured_RNA)
RNA: AGUAGGGGCAUGGCUCGCCCGAGGCUCGGUGCUGCCCCGCCGCCCGCCGCGUUCCUUCCGGCUUGGUGUUCCGGUGGCGGGACCAGGGAAGGGAAGCUCGGGCCAAAUCCGGUCUCGGGCGAGGUGACAGAAAUUUGGAAUCUGACACCGGAGGAUGGCUGAGCUCCGGCUCCUCUGGGAGUGCAAUUACGGACUUCGCA
B6: binds [4].

B7: poly(UA) (ssRNA)
RNA: UAUAUAUAUAUAUAUAUAUAUAUAUAUAUAUAUAUAUAUAUAUAUAUAUAUAUAUAUAUAUAUAUAUAUAUAUAUAUAUAUAUAUAUAUAUAUAUA
B7: no binding [3].

B8: Nr4a1-(a) eRNA 1-200 (structured_RNA)
RNA: GCGGUGAGAGUGAUUUUGUAACUCUAAAGUUACAGAGGGUUUUGUUGUGUUUUUAAUCAAGAGCCCUGGUUUUGAUUUGUGGGUAAUCUUUCUUUAAACCUCGCCCAUUUCCGGCCUGGUGACCUGGGCCACUUUCUCAUGUUGACCCAGAUGAUCCUCAGUAGCAAGAACAAAAGGACAACAGAUGUGGAAACACUCAA
B8: binds [4].

B9: Nr4a1-(a) eRNA 1-200, 4SU (structured_RNA)
RNA: B8 RNA
modifications: 4-thiouridine, <60% of U
B9: binds [5].

B10: poly(GA)48, 96 nt (ssRNA)
RNA: GAGAGAGAGAGAGAGAGAGAGAGAGAGAGAGAGAGAGAGAGAGAGAGAGAGAGAGAGAGAGAGAGAGAGAGAGAGAGAGAGAGAGAGAGAGAGAGA
B10: binds [2].

B11: Nr4a1-(a) eRNA 1-100 (structured_RNA)
RNA: GCGGUGAGAGUGAUUUUGUAACUCUAAAGUUACAGAGGGUUUUGUUGUGUUUUUAAUCAAGAGCCCUGGUUUUGAUUUGUGGGUAAUCUUUCUUUAAACC
Work on B11 yielded a Kd [6] of 140 nM.

B12: Nr4a1-(a) eRNA 1-100, 4SU (structured_RNA)
RNA: B11 RNA
modifications: 4-thiouridine, 40-80% of U
B12: binds [5].

B13: Arc eRNA 96-200 (structured_RNA)
RNA: CCAGCUGGCAGUAGCCCCCCCAACCCCACCCCUGAUGGAGAACUGCUCCUGUAUGAUCCAGCCCAGUGGGCGCACAGGGAGUUGGUAGGUGGGCACUCAGACUGG
B13: binds [7].

B14: poly(G2A), 96 nt (ssRNA)
RNA: GGAGGAGGAGGAGGAGGAGGAGGAGGAGGAGGAGGAGGAGGAGGAGGAGGAGGAGGAGGAGGAGGAGGAGGAGGAGGAGGAGGAGGAGGAGGAGGA
B14: binds [7].

B15: Nr4a1-(b) eRNA 1-100 (structured_RNA)
RNA: AGUAGGGGCAUGGCUCGCCCGAGGCUCGGUGCUGCCCCGCCGCCCGCCGCGUUCCUUCCGGCUUGGUGUUCCGGUGGCGGGACCAGGGAAGGGAAGCUCG
For B15, the Kd [6] was 2020 nM.

AGUAGGGGCAUGGCUCGCCCGAGGCUCGGUGCUGCCCCGCCGCCCGCCGC (structured_RNA) [Nr4a1-(b) eRNA 1-50]: no binding [8].

B16: poly(CA) (ssRNA)
RNA: CACACACACACACACACACACACACACACACACACACACACACACACACACACACACACACACACACACACACACACACACACACACACACACACA
B16: no binding [3].

In the case of GCGGUGAGAGUGAUUUUGUAACUCUAAAGUUACAGAGGGUUUUGUUGUGU (ssRNA) [Nr4a1-(a) eRNA 1-50], the Kd [6] is reported as 9700 nM.

AAAACACAGCCGCCAGGGUGGGGGUGGCAGCCUUGAACGCCACCCUCUAA (structured_RNA) [Arc eRNA 1-50]: no binding [8].

B17: Arc eRNA 1-200 (structured_RNA)
RNA: AAAACACAGCCGCCAGGGUGGGGGUGGCAGCCUUGAACGCCACCCUCUAACUGGCAUGGGCAUCUGAACUCUCAGCUCUGGGGGUGUCUCAUCGGCCAGCUGGCAGUAGCCCCCCCAACCCCACCCCUGAUGGAGAACUGCUCCUGUAUGAUCCAGCCCAGUGGGCGCACAGGGAGUUGGUAGGUGGGCACUCAGACUGG
B17: binds [4].

B18: Arc eRNA 1-200, 4SU (structured_RNA)
RNA: B17 RNA
modifications: 4-thiouridine, 40-80% of U
B18: binds [5].
